B1: BTBD1 (parent)
chain: YGSIHGPTDYQVNIQIIEYEKKQT

Variants of: B1
Assay: protein stability index of a GFP-peptide fusion (GPS, HEK-293T) (PSI 1-6); higher = more stable
Details: c terminus: a fixed tail appended
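Also: lentivirally expressed fusions sorted by FACS into six bins by GFP to DsRed ratio, PSI derived from sequencing read proportions per bin multiplied by bin number.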

Compared with YGSIHGPTDYQVNIQIIEYRKKQT [E20R], YGSIHGPTDYQVNIQIIEYDKKQT [E20D] is higher in protein stability index: 2.08 for the first, 2.59 for the second.

Going from YGSIHGPTDYQVNIQIIEYMKKQT [E20M] to YGSIHGPTDYQVNIQIIEYGKKQT [E20G], the protein stability index falls from 2.33 to 2.21.

First: YGSIHGPTDYQVNIQIIEYIKKQT [E20I]
Second: YGSIHGPTDYQVNIQIIEYPKKQT [E20P]
The protein stability index of the first is higher: 2.22 for the first, 1.72 for the second.

First: YGSIHGPTDYQVNIQIIEYAKKQT [E20A]
Second: YGSIHGPTDYQVNIQIIEYSKKQT [E20S]
The protein stability index of the first is higher: 2.39 for the first, 2 for the second.

First: YGSIHGPTDYQVNIQIIEYVKKQT [E20V]
Second: YGSIHGPTDYQVNIQIIEYTKKQT [E20T]
The protein stability index of the first is lower: 1.84 for the first, 2.25 for the second.

First: YGSIHGPTDYQVNIQIIEYQKKQT [E20Q]
Second: YGSIHGPTDYQVNIQIIEYWKKQT [E20W]
The protein stability index of the first is higher: 2.2 for the first, 2.15 for the second.

Going from YGSIHGPTDYQVNIQIIEYKKKQT [E20K] to YGSIHGPTDYQVNIQIIEYLKKQT [E20L], the protein stability index falls from 2.35 to 2.25.

First: YGSIHGPTDYQVNIQIIEYFKKQT [E20F]
Second: YGSIHGPTDYQVNIQIIEYCKKQT [E20C]
The protein stability index of the first is higher: 1.84 for the first, 1.66 for the second.

Compared with YGSIHGPTDYQVNIQIIEYYKKQT [E20Y], YGSIHGPTDYQVNIQIIEYNKKQT [E20N] is higher in protein stability index: 1.88 for the first, 2.43 for the second.

Compared with YGSIHGPTDYQVNIQIIEYHKKQT [E20H], YGSIHGPTDYQVNIQIIEYEKKET [Q23E] is higher in protein stability index: 2.54 for the first, 2.72 for the second.

Compared with YGSIHGPTDYQVNIQIIEYEKKFT [Q23F], YGSIHGPTDYQVNIQIIEYEKKWT [Q23W] is higher in protein stability index: 1.61 for the first, 2.56 for the second.

Compared with YGSIHGPTDYQVNIQIIEYEKKAT [Q23A], YGSIHGPTDYQVNIQIIEYEKKGT [Q23G] is higher in protein stability index: 2.33 for the first, 2.76 for the second.

First: YGSIHGPTDYQVNIQIIEYEKKCT [Q23C]
Second: YGSIHGPTDYQVNIQIIEYEKKDT [Q23D]
The protein stability index of the first is lower: 1.8 for the first, 2.46 for the second.

First: YGSIHGPTDYQVNIQIIEYEKKLT [Q23L]
Second: YGSIHGPTDYQVNIQIIEYEKKYT [Q23Y]
The protein stability index of the first is lower: 1.6 for the first, 1.93 for the second.

Going from YGSIHGPTDYQVNIQIIEYEKKRT [Q23R] to YGSIHGPTDYQVNIQIIEYEKKMT [Q23M], the protein stability index falls from 2.51 to 2.18.

Going from YGSIHGPTDYQVNIQIIEYEKKPT [Q23P] to YGSIHGPTDYQVNIQIIEYEKKNT [Q23N], the protein stability index rises from 2.28 to 2.88.

Compared with YGSIHGPTDYQVNIQIIEYEKKST [Q23S], YGSIHGPTDYQVNIQIIEYEKKKT [Q23K] is higher in protein stability index: 2.43 for the first, 2.74 for the second.

Going from YGSIHGPTDYQVNIQIIEYEKKIT [Q23I] to YGSIHGPTDYQVNIQIIEYEKKTT [Q23T], the protein stability index rises from 1.81 to 2.13.

Compared with YGSIHGPTDYQVNIQIIEYEKKVT [Q23V], YGSIHGPTDYQVNIQIIEYEKKHT [Q23H] is higher in protein stability index: 2.12 for the first, 2.31 for the second.

First: YGSIHGPTDYQVNVQIIEYEKKQT [I14V]
Second: YGSIHGPTDYQVNYQIIEYEKKQT [I14Y]
The protein stability index of the first is lower: 3.16 for the first, 3.35 for the second.

Compared with YGSIHGPTDYQVNQQIIEYEKKQT [I14Q], YGSIHGPTDYQVNTQIIEYEKKQT [I14T] is lower in protein stability index: 3.74 for the first, 3.58 for the second.

Compared with YGSIHGPTDYQVNWQIIEYEKKQT [I14W], YGSIHGPTDYQVNRQIIEYEKKQT [I14R] is higher in protein stability index: 2.76 for the first, 3.53 for the second.

Compared with YGSIHGPTDYQVNSQIIEYEKKQT [I14S], YGSIHGPTDYQVNITIIEYEKKQT [Q15T] is lower in protein stability index: 3.08 for the first, 1.81 for the second.

Going from YGSIHGPTDYQVNIHIIEYEKKQT [Q15H] to YGSIHGPTDYQVNIKIIEYEKKQT [Q15K], the protein stability index rises from 2.11 to 2.56.

Compared with YGSIHGPTDYQVNICIIEYEKKQT [Q15C], YGSIHGPTDYQVNIFIIEYEKKQT [Q15F] is higher in protein stability index: 1.43 for the first, 2.4 for the second.

First: YGSIHGPTDYQVNIPIIEYEKKQT [Q15P]
Second: YGSIHGPTDYQVNIEIIEYEKKQT [Q15E]
The protein stability index of the first is higher: 3.08 for the first, 2.66 for the second.

Compared with YGSIHGPTDYQVNIAIIEYEKKQT [Q15A], YGSIHGPTDYQVNISIIEYEKKQT [Q15S] is higher in protein stability index: 1.96 for the first, 2.57 for the second.

Compared with YGSIHGPTDYQVNIIIIEYEKKQT [Q15I], YGSIHGPTDYQVNIRIIEYEKKQT [Q15R] is lower in protein stability index: 2.74 for the first, 2.67 for the second.

Compared with YGSIHGPTDYQVNINIIEYEKKQT [Q15N], YGSIHGPTDYQVNIMIIEYEKKQT [Q15M] is lower in protein stability index: 2.62 for the first, 1.96 for the second.

Going from YGSIHGPTDYQVNIVIIEYEKKQT [Q15V] to YGSIHGPTDYQVNIYIIEYEKKQT [Q15Y], the protein stability index falls from 1.6 to 1.37.

Compared with YGSIHGPTDYQVNIGIIEYEKKQT [Q15G], YGSIHGPTDYQVNIWIIEYEKKQT [Q15W] is higher in protein stability index: 2.47 for the first, 4.17 for the second.

First: YGSIHGPTDYQVNIDIIEYEKKQT [Q15D]
Second: YGSIHGPTDYQVNILIIEYEKKQT [Q15L]
The protein stability index of the first is higher: 3.06 for the first, 2.09 for the second.

First: YGSIHGPTDYQVNIQIIEYEHKQT [K21H]
Second: YGSIHGPTDYQVNIQIIEYELKQT [K21L]
The protein stability index of the first is higher: 1.83 for the first, 1.65 for the second.

Going from YGSIHGPTDYQVNIQIIEYEVKQT [K21V] to YGSIHGPTDYQVNIQIIEYEIKQT [K21I], the protein stability index rises from 1.59 to 2.42.

Compared with YGSIHGPTDYQVNIQIIEYEFKQT [K21F], YGSIHGPTDYQVNIQIIEYENKQT [K21N] is lower in protein stability index: 3.75 for the first, 2.32 for the second.

First: YGSIHGPTDYQVNIQIIEYERKQT [K21R]
Second: YGSIHGPTDYQVNIQIIEYEPKQT [K21P]
The protein stability index of the first is higher: 2.25 for the first, 1.95 for the second.

First: YGSIHGPTDYQVNIQIIEYEGKQT [K21G]
Second: YGSIHGPTDYQVNIQIIEYEQKQT [K21Q]
The protein stability index of the first is lower: 2.04 for the first, 2.52 for the second.

First: YGSIHGPTDYQVNIQIIEYEMKQT [K21M]
Second: YGSIHGPTDYQVNIQIIEYETKQT [K21T]
The protein stability index of the first is lower: 2.02 for the first, 2.24 for the second.

Compared with YGSIHGPTDYQVNIQIIEYEDKQT [K21D], YGSIHGPTDYQVNIQIIEYEYKQT [K21Y] is lower in protein stability index: 2.46 for the first, 1.92 for the second.

Compared with YGSIHGPTDYQVNIQIIEYECKQT [K21C], YGSIHGPTDYQVNIQIIEYESKQT [K21S] is higher in protein stability index: 1.96 for the first, 2.13 for the second.

First: YGSIHGPTDYQVNIQIIEYEAKQT [K21A]
Second: YGSIHGPTDYQVNIQIIEYEEKQT [K21E]
The protein stability index of the first is lower: 1.82 for the first, 2.7 for the second.

Compared with YGSIHGPTDYQVNIQIIEYEWKQT [K21W], YGSIHGPTDYQVNIQIQEYEKKQT [I17Q] is higher in protein stability index: 2.8 for the first, 3.35 for the second.

First: YGSIHGPTDYQVNIQIFEYEKKQT [I17F]
Second: YGSIHGPTDYQVNIQIMEYEKKQT [I17M]
The protein stability index of the first is lower: 2.46 for the first, 2.81 for the second.

First: YGSIHGPTDYQVNIQINEYEKKQT [I17N]
Second: YGSIHGPTDYQVNIQISEYEKKQT [I17S]
The protein stability index of the first is higher: 3.33 for the first, 3.31 for the second.

First: YGSIHGPTDYQVNIQIGEYEKKQT [I17G]
Second: YGSIHGPTDYQVNIQILEYEKKQT [I17L]
The protein stability index of the first is higher: 3.31 for the first, 2.68 for the second.

Going from YGSIHGPTDYQVNIQIDEYEKKQT [I17D] to YGSIHGPTDYQVNIQIHEYEKKQT [I17H], the protein stability index falls from 3.63 to 3.22.

Going from YGSIHGPTDYQVNIQIAEYEKKQT [I17A] to YGSIHGPTDYQVNIQITEYEKKQT [I17T], the protein stability index rises from 3.32 to 3.47.
